# Assay: soluble on expression in E. coli; label from the status in PepcDB or PDB records
row,Sequence,soluble on expression in E. coli
1,MAHHHHHHMADVSADSDAQVELERLNDVIDKYTCQVEHIDNLLQELEEENNSDSVSRQIAEYQSALESHPENIPAEDALEVITRLENTLKIVQRRNHLLEKENGTQNRLLEERSNVLLNATKTFDHIVDVTGWHDKFLFDAEDLRSKVADIREMSNIEAVVQKELRVAQGIIKKKEAALRQLEELVEQGKEQEAVLNNVYNDIRVKERDCSEVEMQLVRLRKSVAKTDEALAVFDLHNQNASLAYMESDRDYLRDSVAEMKSTTRRQDNVIKAQLTRQQQLQTRLDVIMKSLREMKLDKKYERNIPKSALVPSASREEPEDVSKILPESECIPVPTYRLLHKNNEMLRVIVMRKNMLVLEKNAVIEALEAGLAKYGSALITTYKEQQDLRQNKDMELIELMDDLQQQHSNYLEKLEELRLQNAALKKKMYRSTRQHAPLKGTRPMR,not soluble
2,MAHHHHHHMAERKVLNKYIPPDFDPDKLMESKKLLKKIEKRKNRNQNKTKKKLMNIRMMYPFTLKCNKCKTFTYVGTKFNSRVEKLKDETYLNIPIWKFYGKCQECKNEIIFKTDPKNGDYLLIAGGTRTYDAHKEQELADDYYRNSNVKDEDKIKNTEKQSYNAMLELKMNEQLEELQNMNKRHLDKFSSINKALNRLYEKSELENKENNFFMNNLDSEDEKAFFSLLNKSRSSKDHIGDNLNKYNPSNNNWVNKNIEKDNIIIEEVELDDNKNNNDEVNEYISEGEGEHSDGNNINEVNESFSDLLLKKKKNRYEKENTVKIKQGNIDTEDKPKDNQQDKTNNISFKNTISNNSSSFSNIIHKPMFNKINKETNFNFVIKKKENFQSLLSEYNSDNSNESDN,not soluble
3,MAHHHHHHMAFTDAVAGKTSLPPPVAIIVGHNIDASAMPLTYERNRLVIDMLQHYACPVFSHKKSGDAMNTVSSDVFEWVLEPLPVVGVEDMTAFHDRAYLNYLSIREALSEVDERASTVKRSRAEGIQPPVSRRSSAQNQPPLRVLPDLVPIPTDEEYGLVNENMPFVGMWRTIQATVSGTLLAARLLAQPGRFAAIHWFGGRHHAKQSTAGGFCFANDVVLGVLELKKLLSSDKKGILVVDVDAHHGDGTQSAFLHDNSVLTLSMHAHGVGIFPGSGGIEEIGAGLGRGFTMNVPLPEGATDILAVTLMYRSIHFAFKKLGEGLAAIVIVCGSDALSGDPLGALNLTVGGMQSIIRLLLKEAARRSLKVLLLGGGGYVDTSCARLAGVVTKDVLSCAAAMRLGKTEYFGDSANLGDNLGVAVPEGCEYFTRYGPSFLMHGLPPARVSKLYRLPYGSPLFMRMQRAATKEALRRRRNQEQDEEEEEEEEEEEEEEEEEEEEEEEEEVEEEEGEGEEEA,not soluble
4,MAHHHHHHMAILYNRITGLKDSVYGEGLQCRILGLDEIKVFNIRIRPRVLKTMTGTKDLQMVNISLRVLFRPQTDRLPQIYREFGMDYDERILPSISNEILKAVVAEYKAEELIQKRDVVSARIYQLMQSKVSQFGLVLEDLSLVDIQFGKEFMVAVEQKQVAQQEAERFRYVVLENEQKRRAAVVRAEGEAESARLISEAIQRSGGGLLELRRIEAAVDIASKLIPMRNVTFLPGGSNMLLHMKSHQASEQAH,not soluble
5,MAHHHHHHMAKRKYMSKVDGKINVGEKHQAKIPDLVTDENEKTNVEETQPVENVNNVNDDVRKNKKAKTEQVEETTNNAAEEQVQQEEPVETAPAHEEPAHGEEAQGEEVQGEEAQGEEVQGEEVQGEEAHEEPANDEPANDEPANDEPANEEPANEEPANEEPANEEPANEEPANEEPANEEPANE,not soluble
6,MAHHHHHHMALTQSSGEPLRSMQGGVGGVSYADGAGQAPEHINRASATPVLTEEAVQSSIETFEDAACVREEAVRSYAEFHNNVESLHATMHTQLRPVWRTAMQLRPEILSDVRDEWCLRRRDNIPDGIPIPAAAAQHIALQETILSEVEDMLQVLRNTSVRFAAHFLSDEEKISMGANPAYLRAPDIDKEVVVSRSQSTSTSPQRALPASVMSVSSSAGAVASAPIKPSASSAATAAVHTPREGHSRHHQGSYVQHHHHHSDDEAGLVSSSSNRHVCSGKSSCGSRSAGEDPLLEELRKQYQLRIRELKAQSEAGASRRSEHGASQSAAAPPPRRGNRARVAASRSLSLPSWASSASASVLTSSSSTVSRR,soluble
7,MAHHHHHHMALYIIGLGLGDERDVSVKGKELIEMSDVVYLESYTSVLFVSKNTLEEFYKKNIKEVDRNLAEENCEEILKEAINKKVSFLVVGDPLCATTHHDIILRAKKKNINVQVIHNASVMSAIGESGMQLYNFGQTVSIPYFEGNYKPTSFYDKIKVNLDNNFHTLCLLDIKVKERTIENMMKNKNIYEPSRFMTVNEAIEQLLYCEEVLKKNVITDNTRGIAIVRIGSDSQQIVSGSLLALKSVSYNDPLHSLIICAPTLHDVEREYFEMYQHRC,soluble
8,MAHHHHHHMAPMSSSGIRGLSLRSVRETVHCATTQTTSAPPPPANCQQHQLLNTTEDKCNAIFAEVELLSKWLQHAVESRAHVEREAYALLQQADVKIQHLEDTVRQKEMELLYMRGAMESLRTRVEFYECRERRIEGDDDDANFPLRREADFKGAAVRKVVIMGENNTNDSYCSNRMGRGNGVMSPADFTVDSTEQLNAGKCVDLGTTATTCNSNGVDNASVSSPAETGVGGRSRVGHSALSWVRYLLERCVSNSGKDGASEGAASMKKKGEGNDQLADALTMLTTLQCQYADPNGDLVMMNSLCTKFSNSIVAVAEELNTALQIPLKRASNTTDSLQISQAAKVVEHPESAAEALPSSNQEPIMQCRKSVVEENLQLLQSLMAVESSSREAWSTLQKY,not soluble
9,MAHHHHHHMASTGNGGDSKAAASSLSPQKAGMVAPLTSAPPLTASTTSPSRLNSMRTANASASSKNNAPTGPSKKGGTAVKPSPEVGGKAAAGSSEPEPRASVNIDRQSKPNANSVNASNVADSTNAPSGKRPDHGRRGRRQECSSWFDAEKPAKADRPADKELNQNVQIVQDDIPDAEQAHREQAERAQRQKEKLARHISESPTGFQATLPRLNELDVTNSWDKLLRMMRSEFDMSCLTSCLARELDEDVAWNPEMLLVQLTSDMLDAAELQKDGGEAYVPVDASDIGQMTGGEVARRRKEKRSTTTAGGAAPAAGAAGGTEREPEKGSEKPAAASPTPAFQAAASKALRKQTTTDPAAAAPSSKKARDTDNAASTSTANSSSTRKRSAAGSRSGEASGGGGNNTNASSSTAKGDSADDTKSSKSTSLKAQVSKLFSK,not soluble
10,MAHHHHHHMATAADYVGKNCPYCGAIDSIETDEARGEAACVNCATVVAMGLEENVATRFEKDATYADVDRGGNVGWDPENGGAIGRATARNAGLTREEAAAAAAGLLRHPNAAASVTSAGPFGDTAKYAKTRLHPRMSAQLEVFFRLSRRHDEAILRDAIALAKHFVGFRRERGMRVEHQTEVAAASVMLAAEHLGQPIPLSEMRVLDGTLKDVESRRQEILDATNLGEEMAQMTKQYAPNLIHYYVRLLQLPLICYEMPCLALFRAIRQCESKPDPGASELAVFVEAEKVVMAVLLARTESRLQWPNKPPPPADPSAEPSRAILYSSFASRAHLQPARVEKLMRVAERSVPLIQPEFERLMQTPEFAVAAVHTMGEAVVSMTAKTEDTKSYAPVKSDPIPTSAPSAPNIARGNRKRSRSRSTTPQVPPSSASQER,not soluble
11,MAHHHHHHMATTSSPAASETAVRTVWFDAIDATAAMISTDPLQPAAEYTADSYLPPLSLAGDQADFFAQLRELDRGFIEAAPSLFLPQMTLEEACHAKPSFYQTFLGEREITETTFQPLLLKQRDEAEQEADGSAMNGRHGARRRRQEAPVLPRGTAPLYGGFLGQEAMSPSTAVQRKPDFMPIILVPSAATAPLQLMNIKQFLEHGAYVDPATLYVDRETGVVNIRDSKPRSVIVKPGSFHDPHKYHVAFRQFRVVDDQDEVDDWSHVCGCIVEGKLWQLKGWYPHEQPQSRDPSRLFSRIRAFLAYFEEDKVPPQCREWNVQSLALTRNLLKDQVHIALASKFWEQLYTFLDEHPMFSRYTIPLTDERL,soluble
12,MAHHHHHHMAVASKGRIADVNQEELTKIGPKIDDVLSICLASFDSLRDMAFKFQYEQAAEKAAYQSGETKPDPMTQLMHVLQRMVDLTLGTAKAVYDQTLLEWRRRKGEGDADSPASQLASSQSMTSPEVLRNSSVEDFAAGSVAWIERGSHLSLLSLEVLSSVLLAHHYLRRDLQKYMLDVNVLDYLEKVFSMERDHELCYFPEGFKTECMRLIANLTHNNVDVNAALVERDTFLFNILSATQIDEENPGMVEWAEFALRNICESSAAAREKIRKLAPQGVTDQSREILAGRCSYSFSSTGKVQLHTQKPPLH,soluble
13,MAHHHHHHMCNGKFAFLFSDFGNHVIEESYYKVNEGQRKGETGANKAAMQIQYCKLSHFLKVPFENFDKKTNKIIYPMFALILFEQNKQLNKNDKSIDEQEFHTFCDQFSLSKWKESLVEISKTYRVGFSPTCSIMGGVTSQEIRKFVSKQHESIPNFCVFDMNQNVVCTSMIS,not soluble
14,MAHHHHHHMDHRRSGLVLSLRYRCDGPVGTVETRRLTHVGTRSRARSAELARVRRALLVLLLPQRMKGLGQRLGDIRPREREGPGCRAQPWRASVVPRPARASLPPPKASGCFYAVHHHDKSSRLSVTATTAHDSSMRAPPSSVLRWTFTCVSSPRSTTAAAQTYHRPLHHPSQGFTTPRGRGRSAIHTHTHTHTHTHTHTHTHTHTHTRLSFNVRGPCEEHPHAPAACCIPLFLCCDAPAVSAAAAMSLQVNLLNNTFANPFMNAAGVMCTTTEELVAMTESASGSLVSKSCTPALREGNPTPRYQALPLGSINSMGLPNNGFDFYLAYAAEQHDYGKKPLFLSMSGLSMRENVEMCKRLAAVATEKGVILELNLSCPNVPGKPQVAYDFDAMRQCLTAVSEVYPHSFGVKMPPYFDFAHFDAAAEILNEFPKVQFITCINSIGNGLVIDAETESVVIKPKQGFGGLGGRYVLPTALANINAFYRRCPGKLIFGCGGVYTGEDAFLHVLAGASMVQVGTALQEEGPSIFERLTSELLGVMAKKRYQTLDEFRGKVRTLDGTAESTR,not soluble
15,MAHHHHHHMDIERLAKNATEITHQSLMLKNIQKEQNNYCKQCGYIYNYDDYMYMYMKRFNLSKWRETSNCLSGRNPYGPFSGGMESSQFDNENCIRCIYCGAIIDTIEMYDHWNGKESYIELNSYREKFIFDKNKKSYWKNKITSLEKNVSLFKEDQNQAYNITYEKCTDCGNDFLHFINIQTRSADEGSTIIYFCPNCKKQTTVNN,not soluble
16,MAHHHHHHMDKIKSWLGFNKKIVFTENKFLLRNVNDQESLQAENVRAEDYPIPEKYLEDPDKIPKYYVFQSNMVTDEDLQPGMLRQLEVDKRLTLPTRTHISFLVTATDVIHSWSIPSLGIKADAIPGRLHKITTFILREGVYYGQCSEMCGTLHGFMPIVVEAVSPEAYAAHAKKYYKE,not soluble
17,MAHHHHHHMDNLFYYMIIQNDRIQPIIVRQPQTVIIHSQPKLPITLDLPPQNIILKNEDPQPIIVRQSNPNIIIEKSQNDFYNHPNFHIGLHDKVNSMSDINNTNIKEQPIKDNMIEDMQNINNADTQFYYNNQNVINENNVLPTHYSYLNNGVFNKEHNYDPYNFTLYSNK,not soluble
18,MAHHHHHHMDPPAAFERRYPELGALRLHFDVLDSTQLYCKRNMARLLQNGSLQDDKHMVVVTCNEQTNGIGTRDTKKKQDRMWLSERGNLFTTFVLLWKREDLEKVKYLSQTSTVAVSKTLEHFHLVTQIKWVNDVLVNEKKIAGCLVHLHYLDDFPSLSRYACVMVGIGINITLRDKDNLLGDNYTSVQKELQRDFGSFCSIPSVEDVMDKLILNLHAVFTKLREEGFSSFLDYITPRLLYKDRNVLVDTDGELIAGHLQGLLHDGSLLLLRGENELVRVNTGHLRLG,soluble

# From the DeepSol protein solubility set
